How the values were obtained:
[1] = target: bovine serum albumin (BSA) (bovine) (UniProt P02769); assay: same ELISA, control wells
[2] = target: flow-through fraction from 110BH3-Sepharose of the culture supernatant of anti-CD3-stimulated AC5 cells; assay: ELISA on wells coated with the flow-through fraction from 110BH3-Sepharose; biotinylated 388F1, amplification system
[3] = target: recombinant human GIF secreted by COS-1 cells co-transfected with SRα-hcGIF and SRα-hfurin (human); assay: absorption on 388F1-Sepharose; titration of GIF bioactivity in the fractions
[4] = target: PLA2-binding GIF (antigen-binding GIF) from anti-CD3-stimulated human T-cell hybridoma AC5 (human)
[5] = target: recombinant human GIF secreted by COS-1 cells co-transfected with SRα-hcGIF and SRα-hfurin (human); assay: absorption on 388F1-Sepharose, acid elution; 12H5 GIF bioassay

UniProt P02769, sequence (P02769 25-607 limits assumed): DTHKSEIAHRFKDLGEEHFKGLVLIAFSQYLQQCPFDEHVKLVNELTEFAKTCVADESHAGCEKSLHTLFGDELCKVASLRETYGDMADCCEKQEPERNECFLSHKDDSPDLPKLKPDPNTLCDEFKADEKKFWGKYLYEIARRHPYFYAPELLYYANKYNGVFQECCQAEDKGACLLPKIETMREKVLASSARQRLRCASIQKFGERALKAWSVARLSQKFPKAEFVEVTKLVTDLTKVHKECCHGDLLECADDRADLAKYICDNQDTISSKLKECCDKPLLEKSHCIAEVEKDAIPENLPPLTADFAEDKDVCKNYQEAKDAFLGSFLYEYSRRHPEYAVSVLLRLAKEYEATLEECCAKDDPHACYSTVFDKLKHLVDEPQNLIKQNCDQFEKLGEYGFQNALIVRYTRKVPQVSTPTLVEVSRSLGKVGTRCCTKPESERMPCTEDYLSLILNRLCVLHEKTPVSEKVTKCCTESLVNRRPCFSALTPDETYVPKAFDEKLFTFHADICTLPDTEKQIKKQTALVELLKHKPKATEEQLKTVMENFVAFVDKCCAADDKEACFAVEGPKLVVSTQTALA

Question: Which ELISA control (nonspecific binding to BSA-coated wells, OD 410) [1] does the source give for “monoclonal anti-human GIF antibody 388F1 (ATCC HB 10472)” here?
Answer: Its ELISA control (nonspecific binding to BSA-coated wells, OD 410) is 0.1 OD 410.

Question: And the ELISA signal (absorption at 490 nm) (absorbance 490 nm) [2]?
Answer: The ELISA signal (absorption at 490 nm) (absorbance 490 nm) was 0.36.

Question: What about the GIF activity of the flow-through relative to the eluate fraction [3] of the same substance?
Answer: Its GIF activity of the flow-through relative to the eluate fraction is under 0.1 fold.

Question: And the ELISA signal (absorption at 490 nm) (absorbance 490 nm) [4]?
Answer: The ELISA signal (absorption at 490 nm) (absorbance 490 nm) was 0.86.

Question: And the GIF activity recovered in the acid eluate fraction [5]?
Answer: The GIF activity recovered in the acid eluate fraction was over 75%.

Reference: patent EP0702725B1
